Experimental data taken from patent publication US20110112012A1 (UNIVERSITY OF GEORGIA STUDIES RESEARCH FOUNDATION, published 2011).

T1: Cry4Ba toxin (Cry4BRA mutant, R203 replaced by A) of Bacillus thuringiensis israelensis (Bacillus thuringiensis israelensis, UniProt P05519 51-641)
T1 construct: domain: ~66 kDa toxin mosquitocidal fragment; also called labeled Cry4Ba
T1 sequence: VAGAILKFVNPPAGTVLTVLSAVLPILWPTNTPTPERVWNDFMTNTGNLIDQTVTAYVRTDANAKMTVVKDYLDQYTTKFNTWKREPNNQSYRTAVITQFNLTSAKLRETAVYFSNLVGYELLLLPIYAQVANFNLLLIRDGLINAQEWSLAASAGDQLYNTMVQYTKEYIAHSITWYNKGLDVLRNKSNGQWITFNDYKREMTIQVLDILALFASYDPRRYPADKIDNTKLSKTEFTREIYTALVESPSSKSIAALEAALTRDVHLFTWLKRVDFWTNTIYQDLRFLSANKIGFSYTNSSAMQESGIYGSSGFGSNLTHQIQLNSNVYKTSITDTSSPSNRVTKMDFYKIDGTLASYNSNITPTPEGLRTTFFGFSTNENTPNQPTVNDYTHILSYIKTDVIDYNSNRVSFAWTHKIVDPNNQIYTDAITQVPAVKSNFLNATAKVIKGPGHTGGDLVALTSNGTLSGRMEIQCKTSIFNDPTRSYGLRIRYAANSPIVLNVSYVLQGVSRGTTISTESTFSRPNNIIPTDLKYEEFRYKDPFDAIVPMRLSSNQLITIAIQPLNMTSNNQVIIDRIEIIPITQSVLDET

B1: CR9-11 fragment of AgCad1, expressed in E. coli (peptide)
chain: GSPLPKFEAIDDDGGIYGDVTFSLTSTNDGEQDHEVFRVDKVDNKTGLLVLENSLAVQPFPKNYSITVIARDGGDRQSEAAIHVVFINMTGEPAFLEPTFDTDFTENEEGRDERRQLPFAEDPKNAGLPPGAETNVYYFIDKTYGNASHLFQLDRVSNVLQLAQLLDREEIPTPEIRIVATNNENSPPDTVLESSPSLLVVRIKVNDVNDNPPVFQQRLYAAGITTNDRVPKALFRVYAEDPDEDEIIRYELVNGTAVGENLQTDGLPFRLHPDSGELTLTSKVQPNQNGYYQLTLIAFDRDDTHNDTVPAKVYIVSESNRVTFVF
notes: Biotinylated for the microplate assay; also called AgCad CR9-11; AgCad-CR9-11
B2: CR11-MPED peptide of AgCad1 (amino acids 1358G to 1569A), expressed in E. coli (peptide)
chain: GITTNDRVPKALFRVYAEDPDEDEIIRYELVNGTAVGENLQTDGLPFRLHPDSGELTLTSKVQPNQNGYYQLTLIAFDRDDTHNDTVPAKVYIVSESNRVTFVFLNSVEEIDQPDVRKFLAQELTGAYEMECNIDDIDQTTASDGRQAGGSSSALTDVRTHFIQDNQAVEASRIQQRSSNRTFVTVLKTTLRTRGLSLQDVPPLATEALTEA
notes: Biotinylated with sulfo-NHS-PC-biotin for the microplate assay; also called AgCad CR11-MPED; AgCad-CR11-MPED

Target: T1, Cry4Ba toxin (Cry4BRA mutant, R203 …)
Assay: microplate ELISA, Cry4Ba coated, biotinylated fragment titrated, one site saturation fit

Binder	Kd [nM]
B1	173
B2	393
